Reference: PMC11374535

Biological target: SlGrx9-nLUC
Test: luciferase complementation assay (LCA) in N. benthamiana leaves, quantified with ImageJ
Settings: parent: est. 6.1; read off a plot

cLUC-SlTrxh (from UniProt Q9LKW0) C54S
response: 6

cLUC-SlTrxh (from UniProt Q9LKW0) C54W
response: 15
